{"source": "patent US20140249073A1", "proteins": {"B1": {"name": "Full length His-tagged S. aureus SPase (protein)", "chain": "MKKELLEWIISIAVAFVILFIVGKFIVTSYTIKGESMDPTLKDGERVAVNIIGYKTGGLEKGNVVVFHANKNDDYVKRVIGVPGDKVEYKNDTLYVNGKKQDEPYLNYNLKHKQGDYITGTFQVKDLPNANPKSNVIPKGKYLVLGDNREVSKDSRAFGLIDEDQIVGKVSFRFWPFSEFKHNFNPENTKN"}}, "key": {"[1]": {"biological_target": "T1, fluorogenic peptide substrate decanoyl-LTPTAY(NO2)A-ASK(abz)DD", "T1 chain": "LTPTAYAASKDD"}, "[2]": {"biological_target": "T2, fluorogenic peptide substrate decanoyl-LSSPAY(NO2)A-ADK(abz)PD", "T2 chain": "LSSPAYAADKPD"}}}
{"protein": "B1", "values": [{"measurement": "second order rate constant (Kcat/Km) of substrate cleavage", "setting": "[1]", "result": "10^5 M^-1 s^-1"}, {"measurement": "second order rate constant (Kcat/Km) of substrate cleavage", "setting": "[2]", "result": "10^5 M^-1 s^-1"}]}
